# Test results reported in patent US20230174598A1 (UNIVERSITY OF FLORIDA RESEARCH FOUNDATION, published 2023).
# B1: K53C arrestin-1 (bovine, His(6), C63A/C143A) labeled with monobromobimane (other)
# chain: MHHHHHHKANKPAPNHVIFKKISRDKSVTIYLGKRDYIDHVERVEPVDGVVLVDPELVCGKRVYVSLTAAFRYGQEDIDVMGLSFRRDLYFSQVQVFPPVGASGATTRLQESLIKKLGANTYPFLLTFPDYLPCSVMLQPAPQDVGKSAGVDFEIKAFATHSTDVEEDKIPKKSSVRLLIRKVQHAPRDMGPQPRAEASWQFFMSDKPLRLAVSLSKEIYYHGEPIPVTVAVTNSTEKTVKKIKVLVEQVTNVVLYSSDYYIKTVAAEEAQEKVPPNSSLTKTLTLVPLLANNRERRGIALDGKIKHEDTNLASSTIIKEGIDKTVMGILVSYQIKVKLTVSGLLGELTSSEVATEVPFRLMHPQPEDPDTAKESFQDENFVFEEFARQNLKDAGEYKEEKTDQEAAMDE
# modifications: monobromobimane (mBBr) on Cys 53
# notes: Cysteine-substitution mutant, made in Pichia pastoris
# B2: K267C arrestin-1 (bovine, His(6), C63A/C143A) labeled with monobromobimane (other)
# chain: MHHHHHHKANKPAPNHVIFKKISRDKSVTIYLGKRDYIDHVERVEPVDGVVLVDPELVKGKRVYVSLTAAFRYGQEDIDVMGLSFRRDLYFSQVQVFPPVGASGATTRLQESLIKKLGANTYPFLLTFPDYLPCSVMLQPAPQDVGKSAGVDFEIKAFATHSTDVEEDKIPKKSSVRLLIRKVQHAPRDMGPQPRAEASWQFFMSDKPLRLAVSLSKEIYYHGEPIPVTVAVTNSTEKTVKKIKVLVEQVTNVVLYSSDYYIKTVAAEEAQECVPPNSSLTKTLTLVPLLANNRERRGIALDGKIKHEDTNLASSTIIKEGIDKTVMGILVSYQIKVKLTVSGLLGELTSSEVATEVPFRLMHPQPEDPDTAKESFQDENFVFEEFARQNLKDAGEYKEEKTDQEAAMDE
# modifications: monobromobimane (mBBr) on Cys 267
# notes: as for B1
# B3: R37C arrestin-1 (bovine, His(6), C63A/C143A) labeled with monobromobimane (other)
# chain: MHHHHHHKANKPAPNHVIFKKISRDKSVTIYLGKRDYIDHVECVEPVDGVVLVDPELVKGKRVYVSLTAAFRYGQEDIDVMGLSFRRDLYFSQVQVFPPVGASGATTRLQESLIKKLGANTYPFLLTFPDYLPCSVMLQPAPQDVGKSAGVDFEIKAFATHSTDVEEDKIPKKSSVRLLIRKVQHAPRDMGPQPRAEASWQFFMSDKPLRLAVSLSKEIYYHGEPIPVTVAVTNSTEKTVKKIKVLVEQVTNVVLYSSDYYIKTVAAEEAQEKVPPNSSLTKTLTLVPLLANNRERRGIALDGKIKHEDTNLASSTIIKEGIDKTVMGILVSYQIKVKLTVSGLLGELTSSEVATEVPFRLMHPQPEDPDTAKESFQDENFVFEEFARQNLKDAGEYKEEKTDQEAAMDE
# modifications: monobromobimane (mBBr) on Cys 37
# notes: as for B1
# B4: R189C arrestin-1 (bovine, His(6), C63A/C143A) labeled with monobromobimane (other)
# chain: MHHHHHHKANKPAPNHVIFKKISRDKSVTIYLGKRDYIDHVERVEPVDGVVLVDPELVKGKRVYVSLTAAFRYGQEDIDVMGLSFRRDLYFSQVQVFPPVGASGATTRLQESLIKKLGANTYPFLLTFPDYLPCSVMLQPAPQDVGKSAGVDFEIKAFATHSTDVEEDKIPKKSSVRLLIRKVQHAPRDMGPQPCAEASWQFFMSDKPLRLAVSLSKEIYYHGEPIPVTVAVTNSTEKTVKKIKVLVEQVTNVVLYSSDYYIKTVAAEEAQEKVPPNSSLTKTLTLVPLLANNRERRGIALDGKIKHEDTNLASSTIIKEGIDKTVMGILVSYQIKVKLTVSGLLGELTSSEVATEVPFRLMHPQPEDPDTAKESFQDENFVFEEFARQNLKDAGEYKEEKTDQEAAMDE
# modifications: monobromobimane (mBBr) on Cys 189
# notes: as for B1
# B5: K166C arrestin-1 (bovine, His(6), C63A/C143A) labeled with monobromobimane (other)
# chain: MHHHHHHKANKPAPNHVIFKKISRDKSVTIYLGKRDYIDHVERVEPVDGVVLVDPELVKGKRVYVSLTAAFRYGQEDIDVMGLSFRRDLYFSQVQVFPPVGASGATTRLQESLIKKLGANTYPFLLTFPDYLPCSVMLQPAPQDVGKSAGVDFEIKAFATHSTDVEEDKIPCKSSVRLLIRKVQHAPRDMGPQPRAEASWQFFMSDKPLRLAVSLSKEIYYHGEPIPVTVAVTNSTEKTVKKIKVLVEQVTNVVLYSSDYYIKTVAAEEAQEKVPPNSSLTKTLTLVPLLANNRERRGIALDGKIKHEDTNLASSTIIKEGIDKTVMGILVSYQIKVKLTVSGLLGELTSSEVATEVPFRLMHPQPEDPDTAKESFQDENFVFEEFARQNLKDAGEYKEEKTDQEAAMDE
# modifications: monobromobimane (mBBr) on Cys 166
# notes: as for B1
# Biological target: T1, bovine enolase-1 (bovine, UniProt Q9XSJ4 1-434, AlexaFluor-546 maleimide on reactive cysteines (pulldown assay only; unlabeled in the quench and activity assays))
# T1 construct: also called Eno1; alpha-enolase
# T1 sequence (Q9XSJ4 whole entry): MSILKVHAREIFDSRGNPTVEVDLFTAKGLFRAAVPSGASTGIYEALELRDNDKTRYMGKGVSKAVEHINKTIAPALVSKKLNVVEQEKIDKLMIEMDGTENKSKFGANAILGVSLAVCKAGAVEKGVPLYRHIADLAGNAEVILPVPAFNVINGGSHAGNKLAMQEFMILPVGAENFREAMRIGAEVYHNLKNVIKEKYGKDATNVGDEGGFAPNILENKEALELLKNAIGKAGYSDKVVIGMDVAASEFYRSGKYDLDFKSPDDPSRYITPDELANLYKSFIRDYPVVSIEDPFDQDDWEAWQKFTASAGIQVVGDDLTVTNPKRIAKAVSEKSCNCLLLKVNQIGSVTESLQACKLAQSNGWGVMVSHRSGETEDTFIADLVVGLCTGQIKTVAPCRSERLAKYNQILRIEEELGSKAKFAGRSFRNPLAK
# Test: KI quench protection of mBBr-labeled arrestin-1; 0.25 µM arrestin-1, 5 µM (20-fold) enolase-1
# Method: C. Quenching assay. Cysteine mutants of arrestin-1 were labeled with monobromobimane (mBBr, ThermoFisher), reacting the arrestin-1 protein with 100-fold molar excess of the fluorescent label for two hours at room temperature. The unreacted label was removed by dialyzing against three sequential changes of 500-volumes of LAP200 buffer. […] Fluorescence quenching of the mBBr fluorophore was performed using 0.25 μM mBBr-labeled arrestin-1 with 100 mM potassium iodide in the presence or absence of 5 μM bovine enolase-1 that had been heterologously expressed and purified as previously described for arrestin-1, monitoring fluorescence emission at 470 nm. To determine the degree to which enolase-1 shielded a residue from quenching by potassium iodide, a protection factor was calculated as follows: […]
# C. Mapping interaction of arrestin-1 with enolase-1. […] The fluorescence emission of the mBBr-labeled arrestin-1 with and without potassium iodide was measured to determine the range of quenching by KI. The fluorescence emission quench by KI with and without enolase-1 was then measured. A quench protection factor was calculated as described in the experimental procedures (Table 2). […] When mapped onto the surface of the arrestin-1 structure, these residues largely mapped to a single surface along the “bottom” of the arrestin protein (FIG. 2B).
F(A+E+K) (fluorescence with enolase-1 and KI),Pf (quench protection factor),Binder
11000,0.314,B1
2850,0.484,B2
16600,0.564,B3
11100,0.467,B4
1040,0.026,B5
